# Source: publication PMC7203701 (ACS Omega, 2020)
# B1: DmoB (Arthrobacter globiformis NBRC 12137) (protein)
# chain: MTAPVLEARRIDSDTYRVVMRHLPTGVAAICSTDPVAGTQNGMIVGTFASLSMEPALVTFSVMHSSTSWPRIAEAGQFSISLLAEDQQQVCRALSAKGEDKLGDVAWSESAWGTPHIHGSLAWFDCRIEQQFTAGDHVVVIASVLDMTPAEGASAPLIFHGGRFGSFRENA
# What was measured:
# DmoB = target: T1, DmoB (Arthrobacter globiformis, UniProt H0QJX4); test: fluorescence quenching titration of FMN with DmoB; type: binding
# T1 sequence (H0QJX4 1-171): B1 chain
# purified protein [1] = substrate: Cc1cc2nc3c(=O)[nH]c(=O)nc-3n(C[C@H](O)[C@H](O)[C@H](O)COP(=O)(O)OP(=O)(O)OC[C@H]3O[C@@H](n4cnc5c(N)ncnc54)[C@H](O)[C@@H]3O)c2cc1C; test: purified protein; conditions: 50 μM NADH, 20 mM PIPES, pH 7.4, 25 °C
# purified protein [2] = substrate: Cc1cc2nc3c(=O)[nH]c(=O)nc-3n(C[C@H](O)[C@H](O)[C@H](O)COP(=O)(O)O)c2cc1C; test: purified protein; conditions: 50 μM NADH, 20 mM PIPES, pH 7.4, 25 °C
# purified protein [3] = substrate: NC(=O)C1=CN([C@@H]2O[C@H](COP(=O)(O)OP(=O)(O)OC[C@H]3O[C@@H](n4cnc5c(N)ncnc54)[C@H](O)[C@@H]3O)[C@@H](O)[C@H]2O)C=CC1; test: purified protein; conditions: 50 μM FMN, 20 mM PIPES, pH 7.4, 25 °C
# purified protein [4] = substrate: Cc1cc2nc3c(=O)[nH]c(=O)nc-3n(C[C@H](O)[C@H](O)[C@H](O)CO)c2cc1C; test: purified protein; conditions: 50 μM NADH, 20 mM PIPES, pH 7.4, 25 °C
Molecule,Kd (DmoB) [nM],Km (purified protein [1]) [µM],Vmax (purified protein [1]) [µmol/min/mg],kcat/Km (purified protein [1]) [M⁻¹ s⁻¹],Km (purified protein [2]) [µM],Vmax (purified protein [2]) [µmol/min/mg],kcat/Km (purified protein [2]) [M⁻¹ s⁻¹],Km (purified protein [3]) [µM],Vmax (purified protein [3]) [µmol/min/mg],kcat/Km (purified protein [3]) [M⁻¹ s⁻¹],Km (purified protein [4]) [µM],Vmax (purified protein [4]) [µmol/min/mg],kcat/Km (purified protein [4]) [M⁻¹ s⁻¹]
Cc1cc2nc3c(=O)[nH]c(=O)nc-3n(C[C@H](O)[C@H](O)[C@H](O)COP(=O)(O)O)c2cc1C [FMN],1110 ± 710,–,–,–,–,–,–,–,–,–,–,–,–
B1,–,84 ± 12,153,583000,18 ± 5,207,3.72e+06,2.3 ± 0.5,149,2.09e+07,142 ± 7,130,283000
